Measured values: article PMC7090148 (2020)

B1: Mouse OFD1, wild type [mouse] / NTAP-tagged TRAPPC12 [mouse] (parent complex)
chain 1: MAQSNMPHKSDVLSQDELRKKLYQTFKDRGVLDTLQTQLRNQLIHELMHPVLSGEVKPPSISVEGSALLIGASNSLVADHLQRCGYEYSLSVFFPESGLAKEKIFTMQDLLQLIRINPSSSLYKSLISGFDKENKKGFLMSFLKELAEYYQAKESCDAETQTSTTFPSQVSLAEKFQLIDAQFADGFPHRSKLESLETKLNEYKKEVQHQLQVEMCHKLKYFREAEITKVKMEERRKYEKELAEFQNEFERTCQAKNEALISQEKNSLERIKKHREMESKEIYAQRQLLLNDIALLRGREAELKERIETFELTQKLQEEKIKSEAEALERREQNLKNIEDTYDQKLKTELLKYQLELKDDYITRTNKLLEEERKNKEKTIHLQEELTVINSKKEELSKSVKHMKEVELELESVKAQFLAISKQNHLLNEKVREMSDYSQLKEEKVELQAQNKLLKLQLEETRNENLRLLDRITQPPPELVIFQKELQKTEKAMELEHKDFETHRQALEKQLQSEIENSAQLRTQIAEYDASVKRLTVQVAELKSQLKQTQIALENEVYRNPKHSLIHSLSGLLLSGKMAPHSEDKSGDFLNVPLEQNKVIAGAVMSRVPPYVNTATEASSPESDFEFIASSTKAKVRELEQEAERLEKAFRTYYQRATQNPSTSPQPAKSPPSVNSVAALRSIASSSMDRPVSAEDRVVSEQPLGDMLKEEMSDMSKAFMGSVVSRPRRTSSSTRLSSTPHPKSRRSLDNEMYLEGLGRLHMTSSSPLLDRVSASPAASPSPCPERTAQASPVPSRHSFSGLPEQNACLYQRQTETQDKSELSNVDKQSLKDEKFEPPFRWNKTEQFEAEGLHPAGDMPGIDFAVATQSSRLISYDYPSAVQSQTGEQDEQELWELHMKERRQREEQRHNERQEALERERRELGKLEQERRMIEESLKMEMEEELEKSVQDQKDKSAHCENTLEKYMKIIQQRQEESNADKSSKKSGKECSLVDMMMPSDKDESSPGFSHEEPDDMW
chain 2: METAKDGEQSPSEASPSAQAGPENIPEPMSREEESQPLYHEETIDLGGDEFASEENEPTSEGSHNFGDKLNEHMMESVLISDSPNNSEGDVGDLGCLQDVGEPPRGATDHRLPSSTDKEVVDTLSNGSETDGDDTPRDISDMTPDSRASLKEDSTQEDVTSMPALENAATEEVGPKDSLAPREEQTSEVSSNQSSSKDEPLPVCTIFSQATATPSQPHLFLQDGFESQMVKSPSFSSTSETSAKTPPPMVQPSPSLSTFFGDTMSSNSLASDFFDSFTTSTFISVSNPNAGSPVPEKLSSLTAPVGEKSPDSTSPSYSTRMDRSESGVSRAPLDVPESPKPFSQIQAVFAGSDDPFATALSMSEMDRRNDAWLPSQATREVLMSVATQQYGTVFIDKENLTMPGLKFDNIQGDAVKDLMLRFLGEKAAAKRQVLNASSVEQSFVGLKQLISCRNWRAAVDLCGRLLTAHGQGYGKNGLPTSHTTDSLQLWFVRLALLVKLGLFQNAEMEFEPFGNLDQPDLYYEYYPHVYPGRRGSMVPFSMRILHAELQQYLGNPQESLDRLHRVKTVCSKILANLEQGLAEDGGLSSVTQESRQASVQLWRSRLGRVLYSMANCLLLMKDYVLAVDAYLTVIKYYPEQEPQLLSGIGRILLQIGDIKTAEKYFQDVEKVTQKLDGLQGKIMVLMNRAFLYLGQNNFAEAHKFFTEILRMDPTNAVANNNAAVCLLYLGKLKDSLRQLEAMVQQDPRHYLHESVLFNLTTMYELESSRSMQKKQSLLEAVASKEGDSFNTQCLKLA

Variants of: B1
Experiment: co-IP (IP: anti-Myc, immunoblot); IP: anti-Myc; 0.5% input; parent: 1
In the case of chain 1 A78T, the ratio to parent is reported as 0.97.
chain 1 G137S gave a ratio to parent of 0.91.
Work on chain 1 S435R yielded a ratio to parent of 0.98.
chain 1 S73F showed a ratio to parent of 0.39.
